Laboratory results published in patent US20250011363A1, “OPTIMIZED SHORTENED PEPTIDE THAT BINDS TO ACETYLCHOLINE RECEPTOR, AND USE THEREOF” (SKINMED CO., LTD., priority 2021, published 2025).

How the values were obtained:
acetylcholine receptor [1] = assay: SPR, AchR immobilised on CM5 chip, peptide at 10 uM
acetylcholine receptor [2] = assay: SPR, AchR immobilised on chip, peptide 10 uM

| Binder | Binding affinity (RU) (acetylcholine receptor [1]) | Binding affinity (RU) (acetylcholine receptor [2]) |
| --- | --- | --- |
| KHTER [5mer-878] | 24 |  |
| RMMER [5mer-865] | 21 |  |
| RNDAK [5mer-881] | 31 |  |
| KKHPK [5mer-869] | 31 |  |
| RCHAK [5mer-860] | 31 |  |
| KETAR [5mer-876] | 16 |  |
| KMENR [5mer-857] | 23 |  |
| KYHPR [5mer-864] | 25 |  |
| KDSWK [5mer-867] | 14 |  |
| RINWR [5mer-866] | 11 |  |
| RCKVK [5mer-870] | 25 |  |
| RCDKK [5mer-880] | 17 |  |
| RYNFR [5mer-873] | 32 |  |
| RFMKK [5mer-855] | 18 |  |
| KMHFK [5mer-868] | 18 |  |
| KTKIR [5mer-861] | 20 |  |
| RIHMR [5mer-874] | 27 |  |

| Binder | Binding affinity (RU) (acetylcholine receptor [1]) | Binding affinity (RU) (acetylcholine receptor [2]) |
| --- | --- | --- |
| RNTER [5mer-854] | 21 |  |
| KHCNK [5mer-875] | 33 |  |
| KMCWK [5mer-851] | 19 |  |
| KDSMK [5mer-852] | 22 |  |
| RYHIK [5mer-853] | 13 |  |
| REANR [5mer-863] | 16 |  |
| RHSHR [5mer-871] | 21 |  |
| KYDIR [5mer-850] | 13 |  |
| RKKWK [5mer-872] | 29 |  |
| RIMGR [5mer-858] | 33 |  |
| KTWMK [5mer-849] | 15 |  |
| KKNAK [5mer-862] | 19 |  |
| RFSMR [5mer-877] | 17 |  |
| KHNAR [5mer-859] | 26 |  |
| KPPDR [5mer-856] | 23 |  |
| KDCMK [5mer-879] | 13 |  |

Second part, the binder after the results:

| Binding affinity (RU) (acetylcholine receptor [1]) | Binding affinity (RU) (acetylcholine receptor [2]) | Binder |
| --- | --- | --- |
| 32 |  | KTHEK [5mer-1166] |
|  | 144 | KRRQSK [6mer-1-268] |
| 21 |  | KTSHR [5mer-1157] |
| 12 |  | KESWK [5mer-1167] |
| 25 |  | KIHFK [5mer-1176] |
|  | 141 | RKQRTK [6mer-1-260] |
| 27 |  | RDAPR [5mer-1153] |
| 29 |  | KDTPK [5mer-1169] |
| 12 |  | KFTNR [5mer-1150] |
| 21 |  | RCSWK [5mer-1171] |
| 12 |  | KCWVR [5mer-1154] |
|  | 128 | RRQYQR [6mer-1-264] |
| 18 |  | RMNVR [5mer-1179] |
| 23 |  | KYNPR [5mer-1158] |
| 21 |  | KCHDR [5mer-1161] |
|  | 121 | KRWVTR [6mer-1-261] |
| 18 |  | REEGR [5mer-882] |
|  | 124 | RKWVTR [6mer-1-257] |
| 31 |  | RHHWR [5mer-1168] |
|  | 144 | KKGRLK [6mer-1-266] |
|  | 137 | KKLQYK [6mer-1-258] |
| 22 |  | KKAKR [5mer-1181] |
|  | 145 | RKSVCR [6mer-1-265] |

| Binding affinity (RU) (acetylcholine receptor [1]) | Binding affinity (RU) (acetylcholine receptor [2]) | Binder |
| --- | --- | --- |
| 20 |  | KIPVR [5mer-1177] |
| 28 |  | KHSEK [5mer-1170] |
| 30 |  | KECKR [5mer-1173] |
| 22 |  | RFDNR [5mer-1178] |
|  | 139 | RKQLQR [6mer-1-262] |
|  | 146 | RKSYTK [6mer-1-263] |
|  | 139 | KRRLLR [6mer-1-267] |
| 26 |  | KTNAR [5mer-1151] |
|  | 141 | KRRYRK [6mer-1-259] |
| 17 |  | KKWKK [5mer-1159] |
| 14 |  | KETWR [5mer-1160] |
| 12 |  | KKSKR [5mer-1163] |
| 25 |  | KIWWR [5mer-1172] |
| 25 |  | RYDMK [5mer-1155] |
| 21 |  | RNMNR [5mer-1165] |
| 13 |  | KKMNK [5mer-1156] |
| 15 |  | KIKKK [5mer-1162] |
| 33 |  | RFPWR [5mer-1164] |
| 27 |  | KETAK [5mer-1180] |
| 25 |  | KYSGK [5mer-1174] |
| 18 |  | KENFK [5mer-1152] |
| 30 |  | RDMIR [5mer-1175] |
| 25 |  | KETDR [5mer-1149] |
